In publication PMC9328939, “A Randomized Double‐Blind Placebo‐Controlled First‐In‐Human Phase 1 Trial of TransCon PTH in Healthy Adults” (Journal of Bone and Mineral Research, 2020):

How the values were obtained:
[1] = Pharmacokinetics of Free PTH after a single s.c. dose of TransCon PTH (SAD cohorts); format: in vivo, human; settings: for Free PTH tmax: median (min-max); for Free PTH Cmax / Free PTH t½ / Free PTH AUC0-t: geometric mean (CV%)
Description: (§1) Subjects attended a screening visit; those who met eligibility criteria were randomly assigned to a SAD or MAD cohort (n = 10/cohort; eight active and two placebo) and received a single or multiple dose(s) of TransCon PTH, respectively, via a syringe and 31G 8‐mm needle s.c. to the abdomen. Single TransCon PTH doses ranged from 3.5 to 124 μg PTH(1‐34) (containing PTH(1‐34) [Bachem AG, Bubendorf, Switzerland], identical to the first 34 amino acids of rhPTH). Multiple TransCon PTH doses administered daily for 10 days ranged from 3.5 to 24 μg PTH(1‐34)/day.
(§2) The primary PK endpoints therefore included Free PTH (defined as the sum of Free PTH(1‐34) and Free PTH(1‐33)) as well as TransCon PTH.
(§3) The PK samples were analyzed by PRA Health Sciences (Assens, the Netherlands); Free PTH was quantified using protein precipitation, liquid‐liquid extraction, and solid‐phase extraction followed by ultra high‐performance liquid chromatography with tandem mass spectrometry detection measuring the two peptides, PTH(1‐34) and PTH(1‐33), by collection of both transitions simultaneously. Free PTH was calculated only if samples contained quantifiable levels of both Free PTH(1‐34) and Free PTH(1‐33); ie, above 1.40 and 0.958 pg/mL for Free PTH(1‐34) and Free PTH(1‐33), respectively. No lower limit of quantification was calculated for Free PTH because the ratio between Free PTH(1‐34) and Free PTH(1‐33) is not constant.
(§4) The PK parameters were calculated using Phoenix WinNonlin, version 6.4 (Certara USA, Inc., Princeton, NJ, USA). For Free PTH, tmax was defined as the time to maximum observed concentration and Cmax was defined as the maximum observed concentration. […] Peak‐to‐trough was calculated as the ratio of Cmax to C24h at steady‐state.

healthy adults [2] = assay: Pharmacodynamics: renal tubular maximum reabsorption of phosphate/GFR (TMP/GFR); format: in vivo, human; settings: MAD cohorts, near steady-state (days 8 to 10); linear regression on dose, p = .0022
Description: The ratio, TMP/GFR is based on sP, urine phosphate (uP), serum creatinine (sCr), and urine creatinine (uCr) and was calculated as follows[18]: (2) TMP/GFR=sP–uPxsCr/uCr
All statistical analyses were performed using SAS 9.3 or higher (SAS Institute, Inc., Cary, NC, USA). Summary statistics were reported for continuous data, including mean, standard deviation, standard error, median, minimum, and maximum, whereas number and percentage of subjects within treatment groups were reported for categorical data. For sP and TMP/GFR, a linear regression model was performed for the change from baseline, with dose and baseline as independent variables at near steady‐state. Near steady‐state was defined as the average of predose values on day 8, 9, and 10. Dose was defined as a continuous variable where placebo was considered zero.

healthy adults [3] = assay: Pharmacodynamics: 1,25-dihydroxyvitamin D; format: in vivo, human; settings: healthy subjects; data not shown
[4] = Pharmacokinetics of Free PTH after 10 daily s.c. doses of TransCon PTH (MAD cohorts); settings: for Free PTH AUC0-24h / Free PTH t½ / Free PTH Cmax: geometric mean (CV%); for Free PTH tmax: median (min-max)
Description: as §1, §2, §3, §4

[5] = single s.c. 72 μg PTH(1-34), n = 7
[6] = single s.c. 100 μg PTH(1-34), n = 8
[7] = single s.c. 124 μg PTH(1-34), n = 8
[8] = MAD, 12 μg PTH(1-34)/day s.c. x 10 days, n = 6
[9] = MAD, 16 μg PTH(1-34)/day s.c. x 10 days, n = 7
[10] = MAD, 20 μg PTH(1-34)/day s.c. x 10 days, n = 6
[11] = MAD, 24 μg PTH(1-34)/day s.c. x 10 days, n = 3

With “TransCon PTH: long-acting, essentially inactive prodrug: PTH(1-34) transiently bound to an inert 40 kDa mPEG carrier via a proprietary autocleaving linker” the “Free PTH tmax” value ([1]; single s.c. 48 μg PTH(1-34), healthy adults, n = 7) was 8.0 (4.0–24.0) (n = 7) h, the “Free PTH Cmax” value ([1]; single s.c. 48 μg PTH(1-34), healthy adults, plasma, UHPLC-MS/MS, n = 7) was 6.61 (19.7) (n = 7) pg/mL and the “Free PTH t½” value ([1]; single s.c. 72 μg PTH(1-34), n = 5) was 54.4 (18.9) (n = 5) h. The “Free PTH Cmax” value [1, 5] was 7.67 (28.5) (n = 7) pg/mL, the “Free PTH AUC0-t” value ([1]; single s.c. 72 μg PTH(1-34), healthy adults, plasma, UHPLC-MS/MS, n = 5) was 420 (20.3) (n = 5) h*pg/mL and the “Free PTH tmax” value [1, 5] was 4.0 (4.0–60.3) (n = 7) h. For the same substance, the “Free PTH t½” value ([1]; single s.c. 100 μg PTH(1-34), n = 7) was 51.0 (32.4) (n = 7) h, the “Free PTH AUC0-t” value [1, 6] was 594 (17.3) (n = 8) h*pg/mL and the “Free PTH Cmax” value [1, 6] was 12.9 (11.7) (n = 8) pg/mL. For the same substance, the “Free PTH tmax” value [1, 6] was 6.0 (4.0–8.0) (n = 8) h, the “Free PTH t½” value ([1]; single s.c. 124 μg PTH(1-34), n = 7) was 55.7 (37.1) (n = 7) h and the “Free PTH AUC0-t” value [1, 7] was 684 (36.9) (n = 8) h*pg/mL. For the same substance, the “Free PTH Cmax” value [1, 7] was 13.8 (45.5) (n = 8) pg/mL, the “Free PTH tmax” value [1, 7] was 4.0 (4.0–60.0) (n = 8) h and the “change in TMP/GFR from baseline” value (healthy adults [2]) was “significant dose‐dependent decrease”. For the same substance, the “1,25-dihydroxyvitamin D levels” value (healthy adults [3]) was “did not change significantly”, the “Free PTH AUC0-24h” value ([4]; MAD, 12 μg PTH(1-34)/day s.c. x 10 days, healthy adults, plasma, UHPLC-MS/MS, n = 5) was 122 (13.4) (n = 5) h*pg/mL and the “Free PTH t½” value ([4]; MAD, 12 μg PTH(1-34)/day s.c. x 10 days, n = 4) was 64.8 (39.2) (n = 4) h. For the same substance, the “Free PTH Cmax” value [4, 8] was 6.24 (13.1) (n = 6) pg/mL, the “Free PTH tmax” value [4, 8] was 4.0 (4.0–16.0) (n = 6) h and the “Free PTH t½” value ([4]; MAD, 16 μg PTH(1-34)/day s.c. x 10 days, n = 4) was 60.0 (20.3) (n = 4) h. For the same substance, the “Free PTH AUC0-24h” value ([4]; MAD, 16 μg PTH(1-34)/day s.c. x 10 days, n = 5) was 152 (9.4) (n = 5) h*pg/mL, the “Free PTH Cmax” value [4, 9] was 6.87 (16.8) (n = 7) pg/mL and the “Free PTH tmax” value [4, 9] was 8.0 (4.0–12.0) (n = 7) h. For the same substance, the “Free PTH t½” value ([4]; MAD, 20 μg PTH(1-34)/day s.c. x 10 days, n = 5) was 51.7 (44.5) (n = 5) h, the “Free PTH AUC0-24h” value [4, 10] was 165 (21.7) (n = 6) h*pg/mL and the “Free PTH Cmax” value [4, 10] was 8.30 (21.4) (n = 6) pg/mL. For the same substance, the “Free PTH tmax” value [4, 10] was 6.1 (4.0–16.1) (n = 6) h, the “Free PTH AUC0-24h” value [4, 11] was 231 (24.2) (n = 3) h*pg/mL and the “Free PTH Cmax” value [4, 11] was 11.1 (27.6) (n = 3) pg/mL. For the same substance, the “Free PTH t½” value [4, 11] was 69.0 (22.3) (n = 3) h, the “Free PTH tmax” value [4, 11] was 7.9 (4.0–12.0) (n = 3) h and the “Free PTH level” value ([4]; MAD, TransCon PTH 12 μg PTH(1-34)/day) was 5 pg/mL. For the same substance, the “mean effective half-life of Free PTH” value ([4]; after multiple daily s.c. dosings, healthy adults) was “approximately 60 hours”.
